Data published in the supplement of paper PMC11246515.
± gives the standard deviation of the averaged measurements.

Assay: total protein half-life in vivo (active degradation + dilution); higher = more stable protein
[1] = E. coli NCM3722 delta-clpP delta-lon delta-hslV, growth: N-lim chemostat, doubling time 6 h
[2] = E. coli NCM3722 delta-clpP, growth: N-lim chemostat, doubling time 6 h
[3] = E. coli NCM3722 delta-hslV, growth: N-lim chemostat, doubling time 6 h
[4] = E. coli NCM3722 delta-lon, growth: N-lim chemostat, doubling time 6 h
[5] = E. coli NCM3722 delta-smpB, growth: N-lim chemostat, doubling time 6 h
[6] = wild type E. coli NCM3722, growth: C-lim chemostat, doubling time 3 h
[7] = wild type E. coli NCM3722, growth: C-lim chemostat, doubling time 6 h
[8] = wild type E. coli NCM3722, growth: C-lim chemostat, doubling time 12 h
[9] = wild type E. coli NCM3722, growth: N-lim chemostat, doubling time 6 h
[10] = wild type E. coli NCM3722, growth: N-lim chemostat, doubling time 12 h
[11] = wild type E. coli NCM3722, growth: P-lim chemostat, doubling time 6 h
[12] = wild type E. coli NCM3722, growth: P-lim chemostat, doubling time 12 h

Sequence | total protein half-life in vivo [1] [h] | total protein half-life in vivo [2] [h] | total protein half-life in vivo [3] [h] | total protein half-life in vivo [4] [h] | total protein half-life in vivo [5] [h] | total protein half-life in vivo [6] [h] | total protein half-life in vivo [7] [h] | total protein half-life in vivo [8] [h] | total protein half-life in vivo [9] [h] | total protein half-life in vivo [10] [h] | total protein half-life in vivo [11] [h] | total protein half-life in vivo [12] [h]
MYYPFVRKALFQLDPERAHEFTFQQLRRITGTPFEALVRQKVPAKPVNCMGLTFKNPLGLAAGLDKDGECIDALGAMGFGSIEIGTVTPRPQPGNDKPRLFRLVDAEGLINRMGFNNLGVDNLVENVKKAHYDGVLGINIGKNKDTPVEQGKDDYLICMEKIYAYAGYIAINISSPNTPGLRTLQYGEALDDLLTAIKNKQNDLQAMHHKYVPIAVKIAPDLSEEELIQVADSLVRHNIDGVIATNTTLDRSLVQGMKNCDQTGGLSGRPLQLKSTEIIRRLSLELNGRLPIIGVGGIDSVIAAREKIAAGASLVQIYSGFIFKGPPLIKEIVTHI [P0A7E1] | 6.89 ± 0.98 | 6.3 ± 1.1 | 6.7 ± 0.85 | 6.48 ± 0.29 | 6.46 ± 0.65 | 3.04 ± 0.24 | 5.72 ± 0.16 | 13.1 ± 0.45 | 6.26 ± 0.34 | 12.5 ± 0.72 | 6.03 ± 0.28 | 14.2 ± 1.6
MTSPNILLTRIDNRLVHGQVGVTWTSTIGANLLVVVDDVVANDDIQQKLMGITAETYGFGIRFFTIEKTINVIGKAAPHQKIFLICRTPQTVRKLVEGGIDLKDVNVGNMHFSEGKKQISSKVYVDDQDLTDLRFIKQRGVNVFIQDVPGDQKEQIPD | 5.94 ± 1 | 3.82 ± 0.62 | 4.08 ± 0.26 |  | 4.01 ± 0.37 | 3.52 ± 0.3 | 5.07 ± 0.32 | 6.95 ± 0.34 | 3.67 | 6.28 ± 0.71 | 4.28 ± 1.7 | 11 ± 0.5
MIEVKHLKTLQALRNCGSLAAAAATLHQTQSALSHQFSDLEQRLGFRLFVRKSQPLRFTPQGEILLQLANQVLPQISQALQACNEPQQTRLRIAIECHSCIQWLTPALENFHKNWPQVEMDFKSGVTFDPQPALQQGELDLVMTSDILPRSGLHYSPMFDYEVRLVLAPDHPLAAKTRITPEDLASETLLIYPVQRSRLDVWRHFLQPAGVSPSLKSVDNTLLLIQMVAARMGIAALPHWVVESFERQGLVVTKTLGEGLWSRLYAAVRDGEQRQPVTEAFIRSARNHACDHLPFVKSAERPTYDAPTVRPGSPARL [P0A9F9] | 5.1817 ± 0.0019 | 1.5 ± 0.033 | 0.933 ± 0.25 | 2.88 ± 0.57 | 1.1 ± 0.09 | 0.811 ± 0.024 | 1.17 ± 0.17 | 1.08 ± 0.34 | 1.14 ± 0.14 | 1.81 ± 0.27 | 0.609 | 1.87
MSNQEPATILLIDDHPMLRTGVKQLISMAPDITVVGEASNGEQGIELAESLDPDLILLDLNMPGMNGLETLDKLREKSLSGRIVVFSVSNHEEDVVTALKRGADGYLLKDMEPEDLLKALHQAAAGEMVLSEALTPVLAASLRANRATTERDVNQLTPRERDILKLIAQGLPNKMIARRLDITESTVKVHVKHMLKKMKLKSRVEAAVWVHQERIF [P0AF28] | 6.09 ± 2.1 | 5.77 ± 2.1 | 4.05 ± 0.41 | 4.81 ± 0.33 | 4.166 ± 0.011 | 3.06 ± 0.19 | 5.03 ± 0.15 | 10.1 ± 1.3 | 4.19 ± 0.087 | 7.26 ± 0.29 | 5.39 ± 0.99 | 9.74 ± 1.3
MIHSSVKRWGNSPAVRIPATLMQALNLNIDDEVKIDLVDGKLIIEPVRKEPVFTLAELVNDITPENLHENIDWGEPKDKEVW [P0AE72] | 5.19 ± 0.15 | 2.31 ± 0.28 | 2.17 | 3.17 | 2.35 |  | 5.66 |  | 1.94 | 5.05 ± 2.4 | 1.3 | 4.48
MKFKTNKLSLNLVLASSLLAASIPAFAVTGDTDQPIHIESDQQSLDMQGNVVTFTGNVIVTQGTIKINADKVVVTRPGGEQGKEVIDGYGKPATFYQMQDNGKPVEGHASQMHYELAKDFVVLTGNAYLQQVDSNIKGDKITYLVKEQKMQAFSDKGKRVTTVLVPSQLQDKNNKGQTPAQKKGN [P0ADV1] | 5.44 ± 0.34 |  | 6.38 ± 0.74 | 6.48 ± 1.1 | 6.18 ± 0.62 | 3.06 ± 0.23 | 5.6321 ± 0.0032 | 10.5 ± 0.36 | 5.73 ± 0.082 | 9.99 ± 1.6 | 5.79 ± 0.07 | 11.8 ± 0.99
MRHPLVMGNWKLNGSRHMVHELVSNLRKELAGVAGCAVAIAPPEMYIDMAKREAEGSHIMLGAQNVDLNLSGAFTGETSAAMLKDIGAQYIIIGHSERRTYHKESDELIAKKFAVLKEQGLTPVLCIGETEAENEAGKTEEVCARQIDAVLKTQGAAAFEGAVIAYEPVWAIGTGKSATPAQAQAVHKFIRDHIAKVDANIAEQVIIQYGGSVNASNAAELFAQPDIDGALVGGASLKADAFAVIVKAAEAAKQA [P0A858] | 5.91 ± 0.91 | 5.22 ± 0.98 | 4.718 ± 0.03 | 5.61 ± 0.81 | 4.59 ± 0.26 | 3.057 ± 0.024 | 5.92 ± 0.066 | 10.6 ± 0.24 | 4.75 ± 0.24 | 8.33 ± 0.46 | 5.79 ± 0.17 | 13.1 ± 0.81
MIISAASDYRAAAQRILPPFLFHYMDGGAYSEYTLRRNVEDLSEVALRQRILKNMSDLSLETTLFNEKLSMPVALAPVGLCGMYARRGEVQAAKAADAHGIPFTLSTVSVCPIEEVAPAIKRPMWFQLYVLRDRGFMRNALERAKAAGCSTLVFTVDMPTPGARYRDAHSGMSGPNAAMRRYLQAVTHPQWAWDVGLNGRPHDLGNISAYLGKPTGLEDYIGWLGNNFDPSISWKDLEWIRDFWDGPMVIKGILDPEDARDAVRFGADGIVVSNHGGRQLDGVLSSARALPAIADAVKGDIAILADSGIRNGLDVVRMIALGADTVLLGRAFLYALATAGQAGVANLLNLIEKEMKVAMTLTGAKSISEITQDSLVQGLGKELPAALAPMAKGNAA | 6.01 ± 0.3 | 5.992 ± 0.053 | 4 ± 0.14 | 3.3 ± 0.036 | 3.68 ± 0.38 | 2.28 ± 0.062 | 3.76 ± 0.41 | 5.29 ± 0.5 | 3.73 ± 0.068 | 6.57 ± 0.92 | 3.28 ± 0.48 | 6.38 ± 0.44
